This is an account of results in paper PMC5009064 (Cell Reports, 2016).

Experiment [1] concerns the target T1, HOIP-PUB domain (Homo sapiens, UniProt Q96EP0).
T1 sequence (Q96EP0 71-142 limits assumed): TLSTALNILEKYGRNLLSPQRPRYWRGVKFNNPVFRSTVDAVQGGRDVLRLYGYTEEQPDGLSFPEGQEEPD
Description: ITC of HOIP-PUB domain titrated into peptide or protein. It counts as binding. To be noted: 398 μM HOIP-PUB domain titrated into CYLD-USP domain at 40 μM; 293 K; 25 mM HEPES (pH 7.5), 150 mM NaCl, 0.5 mM TCEP. The procedure:
(B) ITC characterization of the interactions between (A) the HOIP-PUB domain (597 μM) and a peptide derived from the PIM motif (58 μM) of OTULIN and (B) the HOIP-PUB domain (398 μM) and the CYLD-USP domain (40 μM). For each titration, the raw data and normalized integrated heats are reported. (C) HEK293 cells were transfected with different combinations of CYLD, SPATA2, and OTULIN together with FLAG-HOIP. Protein complexes were subsequently purified using anti-FLAG beads and analyzed by western blotting. (D) SPATA2 expression was suppressed in FLAG-HOIP transfected HEK293 cells using siRNA. FLAG-HOIP was subsequently immunoprecipitated and tested for associated proteins by western blot analysis. (E) A549 cells were transfected with control or SPATA2 siRNA. After 72 hr, cells were subjected to TNFR1-SC purification and analyzed by western blotting. […] They name protein/peptide pairs, not small molecules. / Panel B, Kd: the lowered letter after K is small; read as d.
Samples were subsequently analyzed by western blotting. (B) HOIP-deficient A549 cells were reconstituted with HOIP-WT or HOIP-N102A. […] Samples were analyzed by western blotting. […] Following anti-GFP IP, SPATA association with HOIP and CYLD was evaluated by western blot analysis. […] Bound GST-containing protein was subsequently detected by HRP immunofluorescence, and the signal of both membranes was overlaid. […]

Experiment [2] addresses T2, HOIP-PUB domain (UniProt Q96EP0 71-142).
T2 chain: T1 sequence (Q96EP0 71-142 limits assumed)
Put plainly: ITC. In general terms: Isothermal titration calorimetry measures the heat released or taken up as one component is titrated into another.

Experiment [3] addresses T3, HOIP-PUB domain (UniProt Q96EP0 71-142).
T3 construct: PUB domain of HOIP, as used for ITC; also called PUB domain of HOIP
T3 sequence (looked up): T1 sequence (Q96EP0 71-142 limits assumed)
Description: ITC; 293 K, ITC-200; 25 mM HEPES pH 7.5, 150 mM NaCl, 0.5 mM TCEP; 20 injections of 2 ul HOIP-PUB domain into peptide or domain in the cell; 1:1 binding model. To be noted: both partners purified.

B1: CYLD-USP: USP domain of CYLD, protein domain titrated by ITC (protein)
chain: KGIQGHYNSCYLDSTLFCLFAFSSVLDTVLLRPKEKNDVEYYSETQELLRTEIVNPLRIYGYVCATKIMKLRKILEKVEAASGFTSEEKDPEEFLNILFHHILRVEPLLKIRSAGQKVQDCYFYQIFMEKNEKVGVPTIQQLLEWSFINSNLKFAEAPSCLIIQMPRFGKDFKLFKKIFPSLELNITDLLEDTPRQCRICGGLAMYECRECYDDPDISAGKIKQFCKTCNTQVHLHPKRLNHKYNPVSLPKDLPDWDWRHGCIPCQNMELFAVLCIETSHYVAFVKYGKDDSAWLFFDSMADRDGGQNGFNIPQVTPCPEVGEYLKMSLEDLHSLDSRRIQGCARRLLCDAYMCMYQSP
For B1, in the experiment with HOIP-PUB domain [1], the “direct interaction by ITC” value is “could not detect a direct interaction”.
AEHEEDMYRA [peptide derived from the PIM motif of OTULIN] had a dissociation constant Kd in the experiment with HOIP-PUB domain [2] of 3200 nM.

B2: peptide derived from the C-terminal region of SPATA2 (peptide)
peptide: RGTYFSTQDDVDLYTDSEPR
notes: SPATA2 PIM peptide; also called SPATA2 peptide; PIM of SPATA2
For the molecule B2, in the experiment with HOIP-PUB domain [3], the Kd was found to be 900 nM.

The Kd is the free concentration of one partner at which half of the binding sites on the other are occupied at equilibrium, for simple one-to-one binding.
